Source: patent US20110033476A1 (published 2011)

Experiments:
[1] = biological target: M2 protein of influenza A/Puerto Rico/8/34 (H1N1) (Influenza A virus A/Puerto Rico/8/34 (H1N1)) (UniProt P06821); experiment: ELISA on purified A/Puerto Rico/8/34 virus coated on wells (FIG. 14a)
[2] = biological target: M2 protein of influenza A/Puerto Rico/8/34 (H1N1) (Influenza A virus A/Puerto Rico/8/34 (H1N1)) (UniProt P06821); experiment: surface plasmon resonance, Fab binding to virus
[3] = biological target: T1, M2 protein of influenza A/Puerto Rico/8/34 (H1N1) (Influenza A virus A/Puerto Rico/8/34 …, UniProt P06821 1-97); experiment: ELISA on influenza virus, crude supernatant (FIG. 9)
T1 construct: whole, on cells
T1 sequence (P06821 whole entry): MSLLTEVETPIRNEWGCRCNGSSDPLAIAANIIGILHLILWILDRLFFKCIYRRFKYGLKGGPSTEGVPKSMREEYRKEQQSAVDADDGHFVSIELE

Sequence of M2 protein of influenza A/Puerto Rico/8/34 (H1N1) (Influenza A virus A/Puerto Rico/8/34 (H1N1)) (P06821 whole entry): as above

Molecule	EC50 [1] [µg/mL]	Kd [2] [nM]	koff [2] [s⁻¹]	kon [2] [M⁻¹ s⁻¹]	binding result [3]
TCN-032 (antibody)	0.1	–	–	–	–
TCN-031 (antibody)	0.1	–	–	–	–
TCN-032 Fab	–	3.2	0.0023	740000	–
TCN-031 Fab	–	14	0.014	1e+06	–
23K12 (antibody, V domains shown) VH: EVQLVESGGGLVQPGGSLRISCAASGFTVSSNYMSWVRQAPGKGLEWVSVIYSGGSTYYADSVKGRFSFSRDNSKNTVFLQMNSLRAEDTAVYYCARCLSRMRGYGLDVWGQGTTVTVS VL: DIQMTQSPSSLSASVGDRVTITCRTSQSISSYLNWYQQKPGKAPKLLIYAASSLQSGVPSRFSGSGSGTDFTLTISGLQPEDFATYYCQQSYSMPAFGQGTKLEIK	–	–	–	–	binds
